According to PMC4240654:

Assays:
[1] = molecular target: SC rFVIIIFc R1645A/R1648A (human)
[2] = molecular target: BDD rFVIII (recombinant B-domain-deleted factor VIII, ReFacto / Xyntha) (UniProt P00451)
[3] = molecular target: rFVIIIFc (recombinant factor VIII Fc fusion protein) (human) (UniProt P00451)
[4] = molecular target: SC rFVIIIFc (single chain recombinant factor VIII Fc fusion protein) (human)

FIXa (activated factor IX) (enzyme) gave an Apparent K D (FIXa-FVIIIa affinity), FXa generation assay on synthetic phospholipids, thrombin-activated SC rFVIIIFc R1645A/R1648A [1] of 3.8 nM, an Apparent K D (FIXa-FVIIIa affinity), FXa generation assay on synthetic phospholipids, thrombin-activated BDD rFVIII (ReFacto) [2] of 4.5 nM and an Apparent K D (FIXa-FVIIIa affinity), FXa generation assay on synthetic phospholipids, thrombin-activated rFVIIIFc [3] of 5.5 nM. For the same substance, the Apparent K D (FIXa-FVIIIa affinity), FXa generation assay on synthetic phospholipids, thrombin-activated SC rFVIIIFc [4] was 4.1 nM.
